Where no end group is shown, it is not given here.
B1: Cat^N (EFE-Cat^N, cleaved from SUMO-Cat^N) (peptide)
peptide: EFEALSGDTMIEILDDDGIIQKISMEDLYQRLA
modifications: also: 15N,13C isotope-labelled form used in NMR
notes: the range 120-152 (EFEALSG...QRLA) is counted by me from that statement; Isotope-labelled (15N, 13C) in NMR; also called 15N,13C Cat^N
B3: FLAG-Cat^C (cleaved from SUMO-Flag-Cat^C) (other)
chain: DYKDDDDKMFKLNTKNIKVLTPSGFKSFSGIQKVYKPFYHHIIFDDGSEIKCSDNHSFGKDKIKASTIKVGDYLQGKKVLYNEIVEEGIYLYDLLNVGEDNLYYTNGIVSHACESRGK
notes: also called 15N,13C FLAG-Cat^C

Assays:
[1] = target: B3; experiment: NMR: 1H-15N HSQC, heteronuclear NOE, spin-spin relaxation, Cα-Cβ chemical shift perturbation
[2] = target: T1, Fl-Cat^N (fluorescein labeled Cat^N peptide) (N-terminus capped with 5(6)-carboxyfluorescein); experiment: kon1: slope of kobs1 against Cat^C concentration, stopped-flow fluorescence anisotropy, 100 mM NaCl
T1 construct: Made by Fmoc solid phase synthesis; also called FI-Cat^N; Cat^N containing an N-terminal fluorescein
T1 peptide: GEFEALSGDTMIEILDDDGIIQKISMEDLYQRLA

[3] = target: T1, Fl-Cat^N (fluorescein labeled Cat^N …); experiment: kon1: slope of kobs1 against Cat^C concentration, stopped-flow fluorescence anisotropy, 500 mM NaCl
[4] = target: T1, Fl-Cat^N (fluorescein labeled Cat^N …); experiment: kon2: slope of kobs2 against Cat^C concentration, stopped-flow fluorescence anisotropy, 100 mM NaCl
[5] = target: T1, Fl-Cat^N (fluorescein labeled Cat^N …); experiment: kon2: slope of kobs2 against Cat^C concentration, stopped-flow fluorescence anisotropy, 500 mM NaCl
[6] = target: T1, Fl-Cat^N (fluorescein labeled Cat^N …); experiment: steady-state fluorescence anisotropy, 500 pM Fl-Cat^N, both low (100 mM NaCl) and high (500 mM NaCl) salt
[7] = target: T1, Fl-Cat^N (fluorescein labeled Cat^N …); experiment: one site binding fit of steady-state fluorescence anisotropy, 500 pM Fl-Cat^N, 100 mM NaCl (fit value below the probe concentration)
[8] = target: T1, Fl-Cat^N (fluorescein labeled Cat^N …); experiment: one site binding fit of steady-state fluorescence anisotropy, 500 pM Fl-Cat^N, 500 mM NaCl (fit value below the probe concentration)
[9] = target: B1; experiment: circular dichroism and analytical size exclusion chromatography of Cat^N, Cat^C and the complex

Question: Does B1 bind [1]?
Answer: Result: binds

B2: SUMO-Flag-Cat^C (other)
chain: MGSSHHHHHHGSGLVPRGSASMSDSEVNQEAKPEVKPEVKPETHINLKVSDGSSEIFFKIKKTTPLRRLMEAFAKRQGKEMDSLRFLYDGIRIQADQTPEDLDMEDNDIIEAHREQIGGDYKDDDDKMFKLNTKNIKVLTPSGFKSFSGIQKVYKPFYHHIIFDDGSEIKCSDNHSFGKDKIKASTIKVGDYLQGKKVLYNEIVEEGIYLYDLLNVGEDNLYYTNGIVSHACESRGK
notes: also called SUMO-Flag-Cats
Question: How did the kon [2] turn out when B2 was run?
Answer: Its kon is 2.8e+06 M⁻¹ s⁻¹.

Question: And the kon [3]?
Answer: Its kon is 2.34e+06 M⁻¹ s⁻¹.

Question: And the kon [4]?
Answer: The kon was 160000 M⁻¹ s⁻¹.

Question: And the kon [5]?
Answer: Its kon is 180000 M⁻¹ s⁻¹.

Question: And the Kd [6]?
Answer: Its Kd is < 500 pM.

Question: What about the Kd [7] of the same binder?
Answer: The Kd was 33.9 pM.

Question: What about the Kd [8] of the same binder?
Answer: The Kd was 80.4 pM.

Question: Does B3 bind [9]?
Answer: Result: binds
